# Assay results as given in patent US20220010021A1 (Sanofi, published 2022).
# T1: human beta-Klotho (KLB) (human, UniProt Q86Z14 53-997)
# T1 construct: bought protein, used as analyte in the off-rate screening; also called human KLB; β-Klotho
# T1 sequence (looked up): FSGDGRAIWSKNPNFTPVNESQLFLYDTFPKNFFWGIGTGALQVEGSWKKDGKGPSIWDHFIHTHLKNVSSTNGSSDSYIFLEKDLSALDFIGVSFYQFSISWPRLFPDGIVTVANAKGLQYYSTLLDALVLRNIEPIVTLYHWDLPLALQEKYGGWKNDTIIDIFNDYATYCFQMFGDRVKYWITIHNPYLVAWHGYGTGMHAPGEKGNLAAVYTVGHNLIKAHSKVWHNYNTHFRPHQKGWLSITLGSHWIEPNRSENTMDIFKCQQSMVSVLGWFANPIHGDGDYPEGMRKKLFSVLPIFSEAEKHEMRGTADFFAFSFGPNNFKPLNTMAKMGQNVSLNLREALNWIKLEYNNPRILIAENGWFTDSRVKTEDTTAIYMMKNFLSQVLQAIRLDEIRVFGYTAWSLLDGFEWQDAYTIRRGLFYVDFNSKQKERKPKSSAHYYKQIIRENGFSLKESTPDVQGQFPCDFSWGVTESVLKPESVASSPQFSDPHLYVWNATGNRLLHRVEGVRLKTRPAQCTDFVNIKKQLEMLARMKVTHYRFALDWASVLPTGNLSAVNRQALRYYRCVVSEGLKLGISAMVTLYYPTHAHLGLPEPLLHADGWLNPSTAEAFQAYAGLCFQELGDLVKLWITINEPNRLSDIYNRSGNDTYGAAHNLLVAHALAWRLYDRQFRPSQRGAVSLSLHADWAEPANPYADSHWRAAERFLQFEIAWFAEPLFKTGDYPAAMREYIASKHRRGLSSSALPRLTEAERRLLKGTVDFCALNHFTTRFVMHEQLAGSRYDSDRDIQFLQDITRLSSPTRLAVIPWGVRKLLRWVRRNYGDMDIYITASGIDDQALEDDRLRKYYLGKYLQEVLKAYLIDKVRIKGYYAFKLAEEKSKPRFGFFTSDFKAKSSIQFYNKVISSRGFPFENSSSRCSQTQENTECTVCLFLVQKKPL
# T2: human beta-Klotho (KLB) (human, UniProt Q86Z14 53-997)
# T2 construct: Bought soluble protein; also called human KLB; ß-Klotho
# T2 sequence (looked up): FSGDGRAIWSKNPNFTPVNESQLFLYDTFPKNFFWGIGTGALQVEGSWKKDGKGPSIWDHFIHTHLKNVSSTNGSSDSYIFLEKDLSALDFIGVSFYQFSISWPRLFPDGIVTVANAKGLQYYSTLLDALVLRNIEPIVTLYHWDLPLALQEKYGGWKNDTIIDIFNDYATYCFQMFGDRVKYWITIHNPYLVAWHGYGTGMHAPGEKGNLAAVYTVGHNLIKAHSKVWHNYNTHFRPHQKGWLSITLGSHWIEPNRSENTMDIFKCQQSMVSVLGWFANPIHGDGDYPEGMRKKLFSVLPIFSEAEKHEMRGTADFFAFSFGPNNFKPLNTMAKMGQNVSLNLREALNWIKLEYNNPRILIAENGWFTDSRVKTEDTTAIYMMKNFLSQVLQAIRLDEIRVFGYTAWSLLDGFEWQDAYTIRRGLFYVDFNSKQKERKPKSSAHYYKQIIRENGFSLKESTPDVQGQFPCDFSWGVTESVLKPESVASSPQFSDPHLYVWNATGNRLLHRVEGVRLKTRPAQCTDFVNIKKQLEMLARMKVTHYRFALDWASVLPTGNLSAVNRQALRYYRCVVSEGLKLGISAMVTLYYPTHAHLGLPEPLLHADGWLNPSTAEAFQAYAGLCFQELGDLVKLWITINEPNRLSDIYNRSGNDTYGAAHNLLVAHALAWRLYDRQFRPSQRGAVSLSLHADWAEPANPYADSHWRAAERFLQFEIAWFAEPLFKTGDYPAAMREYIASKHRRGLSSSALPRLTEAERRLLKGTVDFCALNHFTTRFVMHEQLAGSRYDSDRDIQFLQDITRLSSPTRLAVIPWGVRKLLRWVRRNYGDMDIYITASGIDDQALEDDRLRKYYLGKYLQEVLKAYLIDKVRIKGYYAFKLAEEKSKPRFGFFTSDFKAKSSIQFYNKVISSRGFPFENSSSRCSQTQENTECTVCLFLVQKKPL
# B1: 16H7 variant with light chain substitution P54R (antibody, V domains shown)
# VH: not shown
# VL: SYVLTQPPSVSVAPGQTARITCGGNNIGSESVHWYQQKPGQAPVLVVYDDSDRRSGIPERFSGSNSGNTATLTISRVEAGDEADYYCQVWDGNSDHVVFGGGTKLTVLG
# B2: 16H7 light chain variant S31A (antibody, V domains shown)
# VH: not shown
# VL: SYVLTQPPSVSVAPGQTARITCGGNNIGSEAVHWYQQKPGQAPVLVVYDDSDRPSGIPERFSGSNSGNTATLTISRVEAGDEADYYCQVWDGNSDHVVFGGGTKLTVLG
# notes: copies: 2 + 2
# B3: 16H7 light chain variant S31E (antibody, V domains shown)
# VH: not shown
# VL: SYVLTQPPSVSVAPGQTARITCGGNNIGSEEVHWYQQKPGQAPVLVVYDDSDRPSGIPERFSGSNSGNTATLTISRVEAGDEADYYCQVWDGNSDHVVFGGGTKLTVLG
# notes: copies: 2 + 2
# B4: 16H7 light chain variant S29T (antibody, human IgG4 S228P, lambda, V domains shown)
# VH: not shown
# VL: SYVLTQPPSVSVAPGQTARITCGGNNIGTESVHWYQQKPGQAPVLVVYDDSDRPSGIPERFSGSNSGNTATLTISRVEAGDEADYYCQVWDGNSDHVVFGGGTKLTVLG
# B5: 16H7 light chain variant S31G (antibody, human IgG4 S228P, lambda, V domains shown)
# VH: not shown
# VL: SYVLTQPPSVSVAPGQTARITCGGNNIGSEGVHWYQQKPGQAPVLVVYDDSDRPSGIPERFSGSNSGNTATLTISRVEAGDEADYYCQVWDGNSDHVVFGGGTKLTVLG
# B6: 16H7 light chain variant S31V (antibody, human IgG4 S228P, lambda, V domains shown)
# VH: not shown
# VL: SYVLTQPPSVSVAPGQTARITCGGNNIGSEVVHWYQQKPGQAPVLVVYDDSDRPSGIPERFSGSNSGNTATLTISRVEAGDEADYYCQVWDGNSDHVVFGGGTKLTVLG
# B7: 16H7 light chain variant S31T (antibody, V domains shown)
# VH: not shown
# VL: SYVLTQPPSVSVAPGQTARITCGGNNIGSETVHWYQQKPGQAPVLVVYDDSDRPSGIPERFSGSNSGNTATLTISRVEAGDEADYYCQVWDGNSDHVVFGGGTKLTVLG
# notes: copies: 2 + 2
# B8: 16H7 variant with light chain substitution D52F (antibody, V domains shown)
# VH: not shown
# VL: SYVLTQPPSVSVAPGQTARITCGGNNIGSESVHWYQQKPGQAPVLVVYDDSFRPSGIPERFSGSNSGNTATLTISRVEAGDEADYYCQVWDGNSDHVVFGGGTKLTVLG
# B9: 16H7 light chain variant S29Q (antibody, human IgG4 S228P, lambda, V domains shown)
# VH: not shown
# VL: SYVLTQPPSVSVAPGQTARITCGGNNIGQESVHWYQQKPGQAPVLVVYDDSDRPSGIPERFSGSNSGNTATLTISRVEAGDEADYYCQVWDGNSDHVVFGGGTKLTVLG
# B10: 16H7 light chain variant S29P (antibody, human IgG4 S228P, lambda, V domains shown)
# VH: not shown
# VL: SYVLTQPPSVSVAPGQTARITCGGNNIGPESVHWYQQKPGQAPVLVVYDDSDRPSGIPERFSGSNSGNTATLTISRVEAGDEADYYCQVWDGNSDHVVFGGGTKLTVLG
# B11: 16H7 light chain variant S31R (antibody, human IgG4 S228P, lambda, V domains shown)
# VH: not shown
# VL: SYVLTQPPSVSVAPGQTARITCGGNNIGSERVHWYQQKPGQAPVLVVYDDSDRPSGIPERFSGSNSGNTATLTISRVEAGDEADYYCQVWDGNSDHVVFGGGTKLTVLG
# Columns and labels:
# [1] = target: human FGFR1c/KLB receptor complex on iLite FGF21 Assay Ready Cells (human, UniProt P11362 22-822; Q86Z14 1-1044); assay: cell-based or functional assay
# Chain of human FGFR1c/KLB receptor complex on iLite FGF21 Assay Ready Cells (P11362 22-822, chain 1 of 2): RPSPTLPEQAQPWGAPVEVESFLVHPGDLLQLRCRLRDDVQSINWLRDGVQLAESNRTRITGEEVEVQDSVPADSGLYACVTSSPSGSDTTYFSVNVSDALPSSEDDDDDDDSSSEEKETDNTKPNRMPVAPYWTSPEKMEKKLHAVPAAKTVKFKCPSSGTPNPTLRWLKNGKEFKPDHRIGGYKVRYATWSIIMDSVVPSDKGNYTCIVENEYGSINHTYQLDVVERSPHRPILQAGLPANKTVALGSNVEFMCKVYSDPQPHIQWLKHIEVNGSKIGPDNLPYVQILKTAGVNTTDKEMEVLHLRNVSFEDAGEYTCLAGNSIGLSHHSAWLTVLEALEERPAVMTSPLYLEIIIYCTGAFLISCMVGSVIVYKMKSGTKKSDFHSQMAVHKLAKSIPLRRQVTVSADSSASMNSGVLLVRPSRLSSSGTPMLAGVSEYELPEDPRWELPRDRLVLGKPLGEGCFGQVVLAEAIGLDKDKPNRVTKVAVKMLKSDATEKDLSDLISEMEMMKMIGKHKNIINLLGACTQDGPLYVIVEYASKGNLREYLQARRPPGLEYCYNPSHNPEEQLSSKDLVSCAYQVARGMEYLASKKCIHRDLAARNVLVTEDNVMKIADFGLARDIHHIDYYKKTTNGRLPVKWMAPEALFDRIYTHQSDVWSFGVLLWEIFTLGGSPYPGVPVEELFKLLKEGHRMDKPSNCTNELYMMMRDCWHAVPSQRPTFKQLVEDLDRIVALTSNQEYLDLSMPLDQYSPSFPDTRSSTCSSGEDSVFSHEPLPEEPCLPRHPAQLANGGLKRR
# Chain of human FGFR1c/KLB receptor complex on iLite FGF21 Assay Ready Cells (Q86Z14 whole entry, chain 2 of 2): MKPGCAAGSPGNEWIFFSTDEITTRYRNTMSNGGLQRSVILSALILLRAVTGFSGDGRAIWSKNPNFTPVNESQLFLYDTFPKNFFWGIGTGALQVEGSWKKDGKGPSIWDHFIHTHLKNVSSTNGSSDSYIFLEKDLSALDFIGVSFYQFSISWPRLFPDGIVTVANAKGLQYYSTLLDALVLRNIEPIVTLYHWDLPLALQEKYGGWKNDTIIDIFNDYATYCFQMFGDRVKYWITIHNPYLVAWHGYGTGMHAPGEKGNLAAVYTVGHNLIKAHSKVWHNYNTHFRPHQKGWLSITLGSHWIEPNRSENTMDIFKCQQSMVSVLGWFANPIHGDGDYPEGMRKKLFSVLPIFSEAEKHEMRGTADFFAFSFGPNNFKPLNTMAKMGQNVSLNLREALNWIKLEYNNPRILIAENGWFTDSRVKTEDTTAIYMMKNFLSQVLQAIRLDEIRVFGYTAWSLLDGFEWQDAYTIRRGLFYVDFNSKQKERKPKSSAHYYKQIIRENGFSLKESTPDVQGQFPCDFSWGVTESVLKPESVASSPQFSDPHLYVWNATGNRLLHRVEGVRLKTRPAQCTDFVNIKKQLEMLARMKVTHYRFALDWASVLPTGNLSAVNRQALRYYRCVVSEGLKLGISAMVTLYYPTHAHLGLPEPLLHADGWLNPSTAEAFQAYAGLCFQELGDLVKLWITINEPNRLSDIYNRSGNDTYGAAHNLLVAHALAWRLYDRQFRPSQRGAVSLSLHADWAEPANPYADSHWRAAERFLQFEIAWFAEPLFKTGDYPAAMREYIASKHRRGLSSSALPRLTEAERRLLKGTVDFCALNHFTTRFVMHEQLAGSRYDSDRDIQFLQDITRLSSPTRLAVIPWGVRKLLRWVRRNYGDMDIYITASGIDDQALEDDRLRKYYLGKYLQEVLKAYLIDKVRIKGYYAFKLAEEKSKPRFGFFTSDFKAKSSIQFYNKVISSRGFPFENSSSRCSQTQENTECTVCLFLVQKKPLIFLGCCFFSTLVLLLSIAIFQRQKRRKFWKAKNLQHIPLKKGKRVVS
# [2] = target: T1, human beta-Klotho (KLB); assay: BLI off-rate screening, mAb captured, KLB analyte;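 note: Off-rate taken from the dissociation phase, biosensors held in D-PBS with 0.1% BSA over 1800 s, antibody supernatants diluted to 25 µg/mL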
# [3] = target: T2, human beta-Klotho (KLB); assay: BLI off-rate screen, supernatant;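 note: expression supernatants tested at 25 µg/mL, dissociation followed for 1800 s in D-PBS with 0.1% BSA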
# [4] = target: cell surface receptor composed of FGFR1c and co-receptor beta-Klotho (KLB) (human, UniProt P11362 22-822; Q86Z14 1-1044); assay: cell-based or functional assay
# Chain of cell surface receptor composed of FGFR1c and co-receptor beta-Klotho (KLB) (P11362 22-822, chain 1 of 2): as the sequence (P11362 22-822, chain 1 of 2) above
# Chain of cell surface receptor composed of FGFR1c and co-receptor beta-Klotho (KLB) (Q86Z14 whole entry, chain 2 of 2): as the sequence (Q86Z14 whole entry, chain 2 of 2) above
# Throughout, for Mean E max (%): reference of the scale not given here.
# Throughout, for Mean E max, Luciferase reporter gene assay: reference of the scale not given here.
Binder,Mean E max (%) [1],Mean EC50 [1],koff [2],koff [3],"Mean E max, Luciferase reporter gene assay [4]","Mean EC50, Luciferase reporter gene assay [4]"
B1,104%,0.111 nM,0.00011 s⁻¹,–,–,–
B2,–,–,–,5.8e-05 s⁻¹,100%,0.099 nM
B3,–,–,–,0.00031 s⁻¹,98%,0.111 nM
B4,–,–,–,2.2e-05 s⁻¹,102%,0.096 nM
B5,–,–,–,5.5e-05 s⁻¹,109%,0.111 nM
B6,–,–,–,6.6e-05 s⁻¹,100%,0.106 nM
B7,–,–,–,0.00011 s⁻¹,101%,0.108 nM
B8,102%,0.105 nM,7.9e-06 s⁻¹,–,–,–
B9,–,–,–,2.2e-05 s⁻¹,102%,0.114 nM
B10,–,–,–,5.2e-05 s⁻¹,105%,0.174 nM
B11,–,–,–,4.2e-05 s⁻¹,102%,0.166 nM
